According to the supplement of paper PMC7125110:
± gives the standard error. Fewer inactive variants are shown than the library holds.

B1: glmS ribozyme (parent)
chain: AUAAAAGCGCCAGAACUACAGAAAUGUAGUUGACGAGGAGGAGGUUUAUCGAAUUUUCGGCGGAUGCCUCCAAA

Variants of: B1
Assay: self-cleavage kobs at 2500 uM GlcN6P; higher = faster cleavage; RNA array
Conditions: with glucosamine-6-phosphate
In short: (§1)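 Over ~14 h at 37 °C, tiles were imaged as glucosamine-6-phosphate (40 μM to 10 mM) in HEPES/KCl/Mg(OAc)2 buffer flowed across sequenced MiSeq chips. The chips carried barcoded ribozyme variants transcribed in situ by E. coli RNA polymerase and tracked with a hybridised Cy3 probe. After normalisation to baseline and to non-cleaving reference variants, one- or two-exponential decay fits of per-tile medians gave kobs. kcat and KM followed from weighted Michaelis–Menten fits across concentrations.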

| Variant | self-cleavage kobs at 2500 uM GlcN6P [s⁻¹] |
| --- | --- |
| C8G A48U G62A | < 1e-05 |
| U46C G66A C70U | 0.00157 ± 0.00039 |
| G29A G32U G60C | < 1e-05 |
| C34U G37C A42U | < 1e-05 |
| G37A U49C A53U | < 1e-05 |
| G7U U57C C68G | < 1e-05 |
| G13A A14U A53U U54C G60A | < 1e-05 |
| U31G G38U A42U | < 1e-05 |
| G7C G40U C50G G66C | < 1e-05 |
| G41A A52C C67G C71A | < 1e-05 |
| A15U U49G G66U | < 1e-05 |
| C8U A48U G60C | < 1e-05 |
| C11U G51U C70U | 6.92e-05 ± 3.4e-05 |
| C16G G66A U69G | 5.74e-05 ± 2.8e-05 |
| U47G C50G | 4.35e-05 ± 1.2e-05 |
| G7U C16A U30C A52U G60U C71G | < 1e-05 |
| G40C G43A A48U A64C U69A | < 1e-05 |
| C50U A53U G62C | < 1e-05 |
| C8G A14G U55G C58U U65G | < 1e-05 |
| G7C A53U U54G | < 1e-05 |
| U31G A36C G38A G40A | < 1e-05 |
| G29U G41U C67G | < 1e-05 |
| C8G A14U A42U | < 1e-05 |

| Variant | self-cleavage kobs at 2500 uM GlcN6P [s⁻¹] |
| --- | --- |
| G7A U46C A52U C58A | < 1e-05 |
| A14G G38C C61U | < 1e-05 |
| G7A C8G G9C C10G A12C G13A A14G C16A G41C G66U | < 1e-05 |
| C8U C16U G60A C67A | < 1e-05 |
| C11G C16U G51A U65A C67G | 8.38e-05 ± 3e-05 |
| A33G U47C U54C G62A | < 1e-05 |
| G29U G38C G59A | < 1e-05 |
| G32U G37A G63C | < 1e-05 |
| G35C C68U C71A | < 1e-05 |
| A6U G29A G41U U65C C68U | < 1e-05 |
| G9U G59U C70U | < 1e-05 |
| A12G C16G G44U | < 1e-05 |
| C34A A39U C50A A53G C68U | < 1e-05 |
| A12U U49G G59C | < 1e-05 |
| A48C C67G | 2.91e-05 ± 1e-05 |
| A12U G41A C68U | 3.9e-05 ± 1.6e-05 |
| C11U G29A C71G | 8.63e-05 ± 3e-05 |
| A12G G44U G59C G60C | < 1e-05 |
| G29A G35C C71A | < 1e-05 |
| C10A C11A G38C G41A | < 1e-05 |
| G40C G60A G66A | < 1e-05 |
| U45G A48C | 5.95e-05 ± 2.2e-05 |
| G7U G9C U57A G60C | < 1e-05 |

| Variant | self-cleavage kobs at 2500 uM GlcN6P [s⁻¹] |
| --- | --- |
| G9C A15U A42U | < 1e-05 |
| A33C G63A C68A | < 1e-05 |
| A36U U45G C61G | < 1e-05 |
| U49G U54G C68G | 6.25e-05 ± 2.4e-05 |
| C50U G59A C70G C71U | 5.06e-05 ± 1.7e-05 |
| C8A U31C G38A A64C | < 1e-05 |
| G7C A52U U55G C68G | < 1e-05 |
| A33G U45G U47G | < 1e-05 |
| G7U C8U A52G | < 1e-05 |
| A33U G35C C67G | < 1e-05 |
| U46A U56A C67G | 0.000143 ± 6.8e-05 |
| A15U A39U U69C | 0.000466 ± 0.00018 |
| A53C U65C | 0.000159 ± 3.9e-05 |
| A14U C16U C58U | 5.54e-05 ± 1.5e-05 |
| A15U C58G | 2.95e-05 ± 1e-05 |
| G51C G63A C68A | < 1e-05 |
| G44C C70A C71U | < 1e-05 |
| U30A G38U G40C | < 1e-05 |
| U56C C58U G63A | < 1e-05 |
| G7U C8U G35C G62A | < 1e-05 |
| A12U G40A U57A A64C | < 1e-05 |
| A12C A52C | < 1e-05 |
| A12U A15C G41C C61U G66A | < 1e-05 |

| Variant | self-cleavage kobs at 2500 uM GlcN6P [s⁻¹] |
| --- | --- |
| A6U C11U C34G G40A A52G G60A C71A | < 1e-05 |
| G38A A53G G63U | < 1e-05 |
| G37A C68A C70G | < 1e-05 |
| A12U G44U C70U | 5.27e-05 ± 1.8e-05 |
| C10U U31G A42C | < 1e-05 |
| U30A C68G | 7.09e-05 ± 1.5e-05 |
| A15G G51A U57C | < 1e-05 |
| U30G G40U U57G | < 1e-05 |
| A33C G37A G60C | < 1e-05 |
| U45G G63U C70G | < 1e-05 |
| A12G G59C C67U | 4.19e-05 ± 1.9e-05 |
| G29A U69C C70U | 5.97e-05 ± 1.6e-05 |
| A39U A48U C67G | 0.00017 ± 6.1e-05 |
| U45G A64U C68U | < 1e-05 |
| C16U U31C A53C U56A C70U | 0.000183 ± 4.6e-05 |
| U45G U46G A52G | 5.59e-05 ± 2.7e-05 |
| A6U C10A C11G G35U | < 1e-05 |
| G29U A33G G40A | < 1e-05 |
| C8U A15U G32U U46C | < 1e-05 |
| A48G C50A U69G | 0.000106 ± 3e-05 |
| C10A C34A U65C G66C C71G | < 1e-05 |
| U45A A52U C71U | 0.000244 ± 9.4e-05 |
| A12C A15C A48G | < 1e-05 |

| Variant | self-cleavage kobs at 2500 uM GlcN6P [s⁻¹] |
| --- | --- |
| A12C G35U A36G U65G | < 1e-05 |
| A39G G44A | 0.00105 ± 0.00035 |
| G7U G35U U45A A53C | < 1e-05 |
| G43C C67A U69G | 0.000151 ± 6e-05 |
| C11G A12G G29A U31G G43U U49A G51U U54C C61U | < 1e-05 |
| G44U C67U C71A | 3.95e-05 ± 1.3e-05 |
| A39C U47C U65A | 9.45e-05 ± 3.8e-05 |
| G37A G38C A42C | < 1e-05 |
| C16A U31G G32U | 9.46e-05 ± 1.9e-05 |
| C11A C16U A53U | 5.99e-05 ± 2.5e-05 |
| C16U U56C G63A G66U | < 1e-05 |
| A15G G59A C70U | 4.76e-05 ± 1.4e-05 |
| G37U U56C G60C C61G | < 1e-05 |
| A53G U55G G66U | 0.00112 ± 0.00027 |
| G32U A39C | 4.98e-05 ± 1.5e-05 |
| G7U C16U G29A G60U | < 1e-05 |
| G32C C50U U69A | 0.000245 ± 8.3e-05 |
| G37U A52U C71U | < 1e-05 |
| A6C U47C G63C | < 1e-05 |
| G40C G43U U56A | < 1e-05 |
| A15C G43U C67A | 0.000235 ± 7.7e-05 |
| C10G G35U G38A G41U | < 1e-05 |
| C16G C50A C70A | 8.7e-05 ± 2.4e-05 |

| Variant | self-cleavage kobs at 2500 uM GlcN6P [s⁻¹] |
| --- | --- |
| A12U G32A G60A | < 1e-05 |
| G26U U54C G59U U69G | < 1e-05 |
| G40A A53G C58A | 0.000125 ± 3.1e-05 |
| A6U A14G U56A | 0.000586 ± 0.00023 |
| U46G U65A C67G | 0.000131 ± 2.5e-05 |
| C10U G32A G37A A42U C50A U69G | < 1e-05 |
| G7U C11G C16G G32A A53U | < 1e-05 |
| C10U G60C G62U | < 1e-05 |
| U30G U46C C50A A64C | < 1e-05 |
| G13U U47C A64G | 0.000125 ± 3.1e-05 |
| A36U U46A U56G | < 1e-05 |
| A15C U69A | 4.7e-05 ± 1.5e-05 |
| A14U U30A C70U | 0.000871 ± 0.00021 |
| G7A A12G G40U A48G A52C C67U | < 1e-05 |
| G35C A42G U49C | < 1e-05 |
| G7A G43A C70A | < 1e-05 |
| A39G G44U A53G | 0.000722 ± 0.00021 |
| C11U A39G A42G | 0.00125 ± 0.00043 |
| U30A G32U C50A | < 1e-05 |
| C50G G60U C61G U65A | 9.15e-05 ± 3e-05 |
| G7A A39C G63A | < 1e-05 |
| A36U G40U G62C G66C | < 1e-05 |
| C11G G29C A36G U69G | 0.001 ± 0.00046 |

| Variant | self-cleavage kobs at 2500 uM GlcN6P [s⁻¹] |
| --- | --- |
| A6C C11U G21U G32C G41U G43U U65G C68U U69G | < 1e-05 |
| A39G A52U C58A | < 1e-05 |
| A15C G44A C58G G62U | < 1e-05 |
| C11G G41A G62U C68U | < 1e-05 |
| C8U G9U G63U | < 1e-05 |
| A36G A48G U69C | < 1e-05 |
| C61U G63C C71U | < 1e-05 |
| G38C U46C U49A | < 1e-05 |
| C10U A14U G44U C61U | < 1e-05 |
| G9U C10U C34U A53U G63U | < 1e-05 |
| U45A G51U U54G G63C | < 1e-05 |
| G9U G66U U69G | < 1e-05 |
| G35U U57A U69A | < 1e-05 |
| C10A A53U G60U | 8.13e-05 ± 1.6e-05 |
| G9U A36U C50G U54G U57A C67U | 0.000182 ± 3.6e-05 |
| C34U U47C C61U | < 1e-05 |
| C10G C16G G35A A53U A64C | < 1e-05 |
| A14U G29U C67U | 9.48e-05 ± 2.4e-05 |
| A53U U54G U55A C71U | 0.00523 ± 0.0019 |
| G7A U45A U49G | < 1e-05 |
| C11G G29C G37U A52C | < 1e-05 |

Variants of: B1
Assay: self-cleavage kobs at 10000 uM GlcN6P; higher = faster cleavage; RNA array
Conditions: with glucosamine-6-phosphate
In short: as §1

| Variant | self-cleavage kobs at 10000 uM GlcN6P [s⁻¹] |
| --- | --- |
| C8U A48U G60C | < 1e-05 |
| A48C C67G | 2e-05 ± 7.5e-06 |
| A12U G41A C68U | 6.86e-05 ± 1.4e-05 |
| G29A G35C C71A | < 1e-05 |
| U45G A48C | 0.000117 ± 2.2e-05 |
| U46A U56A C67G | 0.000316 ± 7.6e-05 |
| A15U C58G | 4.63e-05 ± 1.2e-05 |
| G29A U69C C70U | 7.72e-05 ± 1.5e-05 |
| A39U A48U C67G | 0.000104 ± 1.6e-05 |
| C16U U31C A53C U56A C70U | 0.000335 ± 8.2e-05 |
| A39G G44A | 0.000926 ± 0.00033 |
| G44U C67U C71A | 4.71e-05 ± 1.2e-05 |
| A53G U55G G66U | 0.00144 ± 0.00029 |
| G32U A39C | 7.09e-05 ± 1.1e-05 |
| A6U A14G U56A | 0.00142 ± 0.00018 |
| A39G G44U A53G | 0.000935 ± 0.00017 |
